# Experiment: soluble on expression in E. coli; label from the status in PepcDB or PDB records
row,Sequence,soluble on expression in E. coli
1,MKRDGHTHTEFCPHGTHDDVEEMVLKAIELDFDEYSIVEHAPLSSEFMKNTAGDKEAVTTASMAMSDLPYYFKKMNHIKKKYASDLLIHIGFEVDYLIGYEDFTRDFLNEYGPQTDDGVLSLHFLEGQGGFRSIDFSAEDYNEGIVQFYGGFEQAQLAYLEGVKQSIEADLGLFKPRRMGHISLCQKFQQFFGEDTSDFSEEVMEKFRVILALVKKRDYELDFNTAGLFKPLCGETYPPKKIVTLASELQIPFVYGSDSHGVQDIGRGYSTYCQKLEHHHHHH,soluble
2,MGSDKIHHHHHHMRDYSPYPLLVDVCVTNRCNLSCSYCSAEAGPFASKKGEMSVEKLDSIFRELNLMGVPRVGVTGGEPFIRDDILDILKAFDKYHFAKVLNTNGNLITDSVAKELSKLHLDRICVTVDGSCSKVHDSQRGKGSFKKAIEGIKNLQRYNLPVSTLFTLGRHNVDDLINTIRLNDMLRIKYMSVMIICPTGRANNGSILADKKHWYPVFLDLTERLSRGEFKVKFKIVPPNESDVFWTHYFPLAFYNRLDLLESVWHQSLNFNSNKKREISCQAGVRACSINHKGDVYGCDLMNGIDELVAGNVKEKSFYEIWHNSSIFHKLRNITFDDISGKCAGCPLPWCGGGCRCSALELDGTLLGSDLACFYDEEESVLV,not soluble
3,MGKLYVFDHPLIQHKITYIRDKNTGTKDFRELVDEVASLMAFEITRDLPLKDIEIETPVSKATTKVIAGKKLGLIPILRAGLGMVDGILKLIPAAKVGHVGLYRDPKTLQPVEYYVKLPTDVEERDFIVLDPMLATGGSAAEAINSLKKRGAKQIKLMCIVAAPEGVKVVQEEHPDVDIYVAALDEKLNDHGYVVPGLGDAGDRLFGTK,not soluble
4,MEKPDINVAEAWEQYWNKTLVNATPVLWDANVERAVVVDLPRFQSFFDTELPLIDFACGNGTQTKFLSQFFPRVIGFDVSKTALEMASKENTAANISYRLLDGLVPEQAAQIHSEIGDANIYMRTGFHHIPVEKRELLAQSLRTLLGKQGVMYLIELGTGCIEFFNSLLEKYGKLPYELSLVMEHGIRPGIFTTEDIELYFPDFEILSQGESLFQSIHKLPDGNYATPPAFWAVIKRHLEHHHHHH,soluble
5,MSLAPNPYLTGRTLNIAHQGGEALWPSNTLTAYRGAVALGVDLLEMDLHATRDGALVLSHDATLDRLTDTQGRIADLTLEQVLRADAGYTLTPAGGSGFPFRGQGVQVAQLKDVLREFPNTPLIIELKQASPSIAAPFCAELRRAGATGRVIAASFSDAALNEFRRLCPEVMTSMTERELRPLVLLSKVGLSALAPTPGQVAQVPVRSGGIEIVTPAFVRALHARGVAVQVWTIDDEAEMRRLVQMGVDGVITNRPDLLKKVLAEREGHHHHHH,not soluble
6,MNVSHISAVSYYFARYIQEVLEVPVGIVVSTWGGSKIEAWMSRESIKPFSSIDLSILDNDAEVKNPTATPCVLYNGKIAPLTNFAVRGFLWYQGESNRDNADLYQSLMPAFVADLRAKWGRGELPFYFVQIAPFDYEGADGTSAARLREVQLQNMKDIPNSGMVTTMDVGHPVFIHPVDKETVGNRLAYWALAQTYGMKGFGYAPPVYKSMEIQENKIYINFYNAQRGLSPMWTSLKGFEIAGEDKVFYPAFAEIETTTARLAVSSDKVSHPVAVRYAYKNYVEASIFSIHGIPAAPFRTDNWLEHHHHHH,not soluble
7,MVSLRELRGGLMSNKYCQALVELRNKPAHELKEVGDQWRTPDNIFWGINTLFGPFVLDLFTDGDNAKCAAYYTAEDNALAHDWSERLAELKGAAFGNPPYPWLEHHHHHH,not soluble
8,MQEYTNHSDTTFALRNISFRVPGRTLLHPLSLTFPAGKVTGLIGHNGSGKSTLLKMLGRHQPPSEGEILLDAQPLESWSSKAFARKVAYLPQQLPPAEGMTVRELVAIGRYPWHGALGRFGAADREKVEEAISLVGLKPLAHRLVDSLSGGERQRAWIAMLVAQDSRCLLLDEPTSALDIAHQVDVLSLVHRLSQERGLTVIAVLHDINMAARYCDYLVALRGGEMIAQGTPAEIMRGETLEMIYGIPMGILPHPAGAAPVSFVY,soluble
9,MIQEYQLRILPEIAASEQQLKAYLSQEKGLNQRDITALRTLKRSIDARQRTIYVNLKVRVYLNEMPKDDEYEHTIYNNVEGKPQVIVVGAGPGGLFAALRLIELGLRPVVVERGKDVRERKKDLAQISREHRVDPESNYSFGEGGAGAYSDGKLYTRSKKRGNVDKILNVFCQHGASTAILVDAHPHIGTDKLPRVIENMRNTIIECGGEVHFKTRMDALIIEQGEVKGIETNTGETFLGPVILATGHSARDVYRWLAANNVTIEAKGIAVGVRLEHPAGLIDQIQYHNRSGRGKYLPAAEYSFVTQVDGRGVYSFCMCPGGFIVPAASGPEQVVVNGMSPSNRGSRWSNSGMVVEIQPEDIINDKRLTVNNEAEETFPELAVLHFQEELERQCWLQGGRRQTAPAQRMVDFTRKKLSYDLPESSYSPGLISSPLHFWMPEFIAGRLSQGFQQFGRSSHGFLTNEAVMIGVETRTSSPVRIVRDKDTLQHITLRGLFPCGEGAGYAGGIVSAGIDGERCAEAVAQFMNPLEHHHHHH,soluble
10,MGSDKIHHHHHHMILPDRKQILDRELIRRIADTTISGSGHSDGLSEYASIRKAAFAFVESAVLGDQAYSPIENAELAFIVWILAALDENIITARTIIKARDTVYYYLRLVEHYEDLEEFGSRLGIEISVFGEQIGKDHLYRIGVADFATYASRVTGSKYRLSNQIVREGYVYVDEDVMAKVLREAFVSFMFDTLDQIRYYDAIETIKSVLDDLEKIRESYRKAHNVRMIAGKGDASMFPPCMKEIIKNLESGVNVSHMGRLALASFLHKAGYSEDEIVPYFRNAPDFDENITRYQIKHISGEISGTEYTPPKCETMRSNHLCYMDDDPLCHREWMKHPLTYYEVKRRNRKIR,not soluble
11,MGSDKIHHHHHHMFDPETLRTFIAVAETGSFSKAAERLCKTTATISYRIKLLEENTGVALFFRTTRSVTLTAAGEHLLSQARDWLSWLESMPSELQQVNDGVERQVNIVINNLLYNPQAVAQLLAWLNERYPFTQFHISRQIYMGVWDSLLYEGFSLAIGVTGTEALANTFSLDPLGSVQWRFVMAADHPLANVEEPLTEAQLRRFPAVNIEDSARTLTKRVAWRLPGQKEIIVPDMETKIAAHLAGVGIGFLPKSLCQSMIDNQQLVSRVIPTMRPPSPLSLAWRKFGSGKAVEDIVTLFTQRRPEISGFLEIFGNPRS,not soluble
12,GARIKTLSVSRPIIYGNTAKKMGSVKPPNAPAEHTHLWTIFVRGPQNEDISYFIKKVVFKLHDTYPNPVRSIEAPPFELTETGWGEFDINIKVYFVEEANEKVLNFYHRLRLHPYANPVPNSDNGNEQNTTDHNSKDAEVSSVYFDEIVFNEPNEEFFKILMSR,soluble
13,MISVTLSKIADVLGAEHRGADLTLDTVITDTRKVTPGCLFVALKGERFDAHDFADKAKANGAGALLVSRPLDIDLPQVIVKDTRQAFGQLAAWVRMQVPARVVALTGSSGKTSVKEMTAAILSQCGNTLYTAGNFNNDIGVPITLLRLNHDYDYAVIELGANHQGEIAWTVSLTRPEAALVNNLAAAHLEGFGSLAGVAKAKGEIYTGLPENGIAIMNADNNDWLNWQSIIGDRLVWRFSPNAANSDFTAANIHVTSHGTEFTLQTPMGSIDVLLPLPGRHNIANALAAAALSMAVGATLTAIKAGLAALKAVPGRLFPIQLSENQLVLDDAYNANVGSMTAAVQVLSEMPGYRVLVVGDMAELGAESEACHLQVGEAAKAAGIDRVLSTGKLSQAISHASGVGEHFADKAALIARLHALLQEQPMMTILVKGSRSAAMEDVVHALQEKGSC,not soluble
14,MTNLFVRSGISFVDRSEVLTYIGNEMLAKGVVHDTWPQALIAREAEFPTGIMLEQHAIAIPHCEAIHAKSSAIYLLRPTNKVHFQQADDDNDVAVSLVIALIVENPQQQLKLLRCLFGKLQQPDIVETLITLPETQLKEYFTKYVLDSDE,not soluble
15,MRPISNLNTSAATYIPPQQLPSSCLETLTLLVQMNNYIKRDADYSTGMAVAPLVPEEVHLLAAAMTTELHRHQFQPVVSANDLQLPEPFTFDVAGFTITFTKTQEHDNTGNLMKIAVSKSGVCTSTNITLELFHSIVTTLMSRSQYGTFDLWSVRPILTDESQNRVHEAARYSPAQQYGREETHFTNNGMREFGNMSPLAWRNDVELQQSCNTSNIPPNAANDDINNTRQTIEDQPEADEPQQYVKLTVDDMRKWAAMDQQARNALQGVSGWCTRNHFNIKNARNYLTDHGLNYAGQVKVNRPHEYAKFTLEHIRQWAALNKHVRKPVGYLEKWCKERNLAPTTARNYLKNDGLTALGELKLTGPQKWVTFTFGDIVQWANMTQEERNSAGGAEKWSKKRGFQWSTARSYLKSSGVTKQGARKLAWLKNSGNMSNPFYLAQPTSRRT,not soluble

# — the DeepSol protein solubility set
